Values joined by “and” are separate entries in the source; they are usually repeats but may differ in a detail not shown here. Identical values can stand only once. Values belong to the binder of their own block, whether it stands above or below them.
Experiments:
[1] = target: T1, FLT3 (Fms Related Receptor Tyrosine Kinase 3) (human, UniProt P36888 27-993); assay: flow cytometry on REH cells, anti-human IgG Fc Alexa Fluor 488 detection, with or without 10 nM FLT3L pre-incubation
T1 construct: whole, on cells; The target is endogenous FLT3 on human leukemia cell lines; also called human FLT3; FLK2
Source text: Cells were then stained with various concentrations of the chimeric monoclonal antibody prepared in flow buffer. Cells were washed five times with flow buffer and stained with anti-human IgG Fc antibody conjugated to Alexa Fluor 488 (Jackson Immunoresearch Laboratories, 109-545-008). Cells were stained with 7-AAD (7-AAD Viability Staining Solution, Biolegend 420404) followed by flow cytometry analysis.

[2] = target: T1, FLT3 (Fms Related Receptor Tyrosine …); assay: flow cytometry on REH cells, median fluorescence intensity against concentration, four-parameter fit, anti-His FITC detection
Protocol: (§1) REH cells were incubated with varying concentrations (10⁻¹ to 10⁴ ng/mL) of the IgG1 or scFv molecules diluted in FACS buffer (hereinafter referred to simply as “buffer,” phosphate buffered saline (PBS) (Caisson Labs, no. PBL06)+2% BCS (GE Healthcare, no. SH30073.04)+1 mM EDTA (Invitrogen, no. 15575020)) in a final volume of 100 μL, in triplicate, for 30 minutes at 4° C. Cells were washed three times with buffer and incubated with secondary antibodies. IgG1 was detected with 1:200 goat anti-human Fc FITC (Jackson) secondary antibody and scFv was detected with anti-His FITC (1:200) secondary antibody. Secondary antibodies were incubated in 100 μL final volume in triplicate for 30 minutes at 4° C. Cells were washed once with buffer and resuspended in 200 uL buffer+1:100 7-AAD Viability Staining Solution (Biolegend, no. 420404), and analyzed by flow cytometry. Flow cytometry acquisition was performed with a Beckman Coulter CytoFLEX (Beckman Coulter), and analysis was performed with FlowJo (Treestar Inc, Ashland, OR). Plots show median fluorescence intensity of REH cells versus concentration of the primary antibody used. Variable slope (four parameters) curve was fit to the data and EC50 was used to compare binding affinities.

[3] = target: T1, FLT3 (Fms Related Receptor Tyrosine …); assay: flow cytometry on REH cells, median fluorescence intensity against concentration, four-parameter fit, goat anti-human Fc FITC detection
Protocol: as §1

binding result [1]: binds
B1: chimeric antibody 1-18BA (mouse VL and mouse VH, human IgG) (antibody, V domains shown)
VH: QVTLKESGPGILQPSQTLSLTCSFSGFSLSTSTMGVGWIRQPSGKGLEWLLHILWNDSKYYNPALKSRLTISKDTYNKQVFLKIANVDTADTATYYCARIVYYSTYVGYFDVWGAGTTVTVSS
VL: DIQMTQSPSSLSASLGERVSLTCRASQEISGYLSWLQQKPDGTIKRLIYAASTLHSGVPKRFSGSRSGSDYSLTISRLESEDVADYYCLQYASYPFTFGSGTKLEIK
notes: these appear to be the numbers of US 20190389955; also called chimeric anti-FLT3 antibody; cAb1977-10.0

EC50 [2]: 0.0854 µg/mL and 3.42 nM
B2: his-tagged scFv, clone hum 1-18BA-v1 (SEQ ID NO: 4 with a His tag on the C terminus) (scFv)
scFv: DIQMTQSPSSLSASVGDRVTITCRASQEISGYLSWLQQKPGKAIKRLIYAASTLQSGVPSRFSGSRSGSDYTLTISSLQPEDFATYYCLQYASYPFTFGQGTKLEIKGGGGSGGGGSGGGSGGGGSQVTLKESGPTLVKPTQTLTLTCTFSGFSLSTSTMGVGWIRQPPGKALEWLAHILWNDSKRYNPSLKSRLTITKDTSKKQVVLTMTNMDPVDTATYYCARIVYYSTYVGYFDVWGQGTTVTVSS
notes: also called humanized anti-FLT3 scFv; scFv molecule; not shown: C-terminal His tag

EC50 [3]: 0.0621 µg/mL and 0.41 nM
B3: fully humanized anti-human FLT3 monoclonal IgG1, clone hum 1-18BA-v1 (antibody, V domains shown)
VH: QVTLKESGPTLVKPTQTLTLTCTFSGFSLSTSTMGVGWIRQPPGKALEWLAHILWNDSKRYNPSLKSRLTITKDTSKKQVVLTMTNMDPVDTATYYCARIVYYSTYVGYFDVWGQGTTVTVSS
VL: DIQMTQSPSSLSASVGDRVTITCRASQEISGYLSWLQQKPGKAIKRLIYAASTLQSGVPSRFSGSRSGSDYTLTISSLQPEDFATYYCLQYASYPFTFGQGTKLEIK
notes: also called humanized anti-FLT3 IgG; IgG1 molecule
